Data published in publication PMC8999356, “In Vitro One-Pot 3-Hydroxypropanal Production from Cheap C1 and C2 Compounds” (International Journal of Molecular Sciences, 2022).

Legend:
[1] = substrate: CC=O; experiment: aldol condensation, 3-HPA quantified by HPLC after O-benzylhydroxylamine derivatisation, Michaelis-Menten fit; type: biochemical, Thermotoga maritima; settings: co-substrate formaldehyde, 20 mM Kpi pH 7.0, 40 °C
[2] = substrate: C=O; experiment: as above; type: biochemical, Thermotoga maritima; settings: co-substrate acetaldehyde, 20 mM Kpi pH 7.0, 40 °C

B1: DERATma (Thermotoga maritima MSB8) (protein)
chain: MIEYRIEEAVAKYREFYEFKPVRESAGIEDVKSAIEHTNLKPFATPDDIKKLCLEARENRFHGVCVNPCYVKLAREELEGTDVKVVTVVGFPLGANETRTKAHEAIFAVESGADEIDMVINVGMLKAKEWEYVYEDIRSVVESVKGKVVKVIIETCYLDTEEKIAACVISKLAGAHFVKTSTGFGTGGATAEDVHLMKWIVGDEMGVKASGGIRTFEDAVKMIMYGADRIGTSSGVKIVQGGEERYGG
B1 was tested. Which Km [1] did it give?
Its Km is 6.95 mM.

And the kcat [1]?
Its kcat is 0.0085 s⁻¹.

And the Km [2]?
The Km was 2.41 mM.

And the kcat [2]?
The kcat was 0.00817 s⁻¹.
